From patent US20230121197A1, “ANTIBODIES SPECIFICALLY BINDING THE CARBOXYMETHYLATED CATALYTIC SUBUNIT OF PROTEIN PHOSPHATASE 2A” (Medizinische Universität Wien, priority 2020, published 2023)

T1: PP4c C-terminal peptide meL307, ac-PSKKPVADYFL-CH3 (α-carboxymethylated) (human, SMILES …)
T1 construct: also called mePP4c; PP4 Me
T1 peptide: Ac-PSKKPVADYFL-OMe

T2: PP6c C-terminal peptide meL305, ac-IPPRTTTPYFL-CH3 (α-carboxymethylated) (human, SMILES …)
T2 construct: also called PP6 meLeu305
T2 peptide: Ac-IPPRTTTPYFL-OMe

B1: 7C10-C5 monoclonal antibody (antibody, V domains shown)
VH: DVQLQESGPGLVKPSQSLSLTCSVTGYSITSGYYWNWIRQFPGNKLEWMGYISYDGSNNYNPSLKNRISITRDTSKNQFFLKLNSVTTEDTATYYCAGRFAYWGQGTLVTVSA
VL: DVLMTQTPLSLPVSLGDQASISCRSSQSIVHSNGNTYLEWYLQKPGQSPKLLIYKVSNRFSGVPDRFSGSGSGTDFTLKINRVEAEDLGVYYCFQGSHVPWTFGGGTKLEIK
notes: Used as hybridoma culture supernatant (ELISA, Western blot, IHC) or at 50 µg/mL (SPR); also called 7C10 X63; clone 7C10-C5
B2: 7C10-C5: α-carboxymethylation specific mouse monoclonal IgG1 antibody from single clone hybridoma 7C10-C5 (DSM ACC3350) (antibody)
heavy: MYRMQLLSCIALSLALVTNSDVQLQESGPGLVKPSQSLSLTCSVTGYSITSGYYWNWIRQFPGNKLEWMGYISYDGSNNYNPSLKNRISITRDTSKNQFFLKLNSVTTEDTATYYCAGRFAYWGQGTLVTVSAAKTTAPSVYPLAPVCGDTTGSSVTLGCLVKGYFPEPVTLTWNSGSLSSGVHTFPAVLQSDLYTLSSSVTVTSSTWPSQSITCNVAHPASSTKVDKKIEPRGPTIKPCPPCKCPAPNLLGGPSVFIFPPKIKDVLMISLSPIVTCVVVDVSEDDPDVQISWFVNNVEVHTAQTQTHREDYNSTLRVVSALPIQHQDWMSGKEFKCKVNNKDLPAPIERTISKPKGSVRAPQVYVLPPPEEEMTKKQVTLTCMVTDFMPEDIYVEWTNNGKTELNYKNTEPVLDSDGSYFMYSKLRVEKKNWVERNSYSCSVVHEGLHNHHTTKSFSRTPGK
light: MDMRVPAQLLGLLLLWLSGARCDVLMTQTPLSLPVSLGDQASISCRSSQSIVHSNGNTYLEWYLQKPGQSPKLLIYKVSNRFSGVPDRFSGSGSGTDFTLKINRVEAEDLGVYYCFQGSHVPWTFGGGTKLEIKADAAPTVSIFPPSSEQLTSGGASVVCFLNNFYPKDINVKWKIDGSERQNGVLNSWTDQDSKDSTYSMSSTLTLTKDEYERHNSYTCEATHKTSTSPIVKSFNRNEC
modifications: Amino acid sequence of the recombinant 7C10-C5 heavy chain; Amino acid sequence of the recombinant 7C10-C5 light chain

Tests used:
[1] = target: T1, PP4c C-terminal peptide meL307, …; assay: ELISA, peptide coated at 2 µg/ml, hybridoma supernatant 1:50, values normalized to meL309, N=7
Source text: (§1) FIG. 9: Monoclonal antibody 7C10-C5 detects α-carboxymethylated PP2Ac C-terminal peptides with >10-fold higher signal intensity than the α-carboxymethylated PP4c and PP6c C-terminal peptides in ELISA. Nunc Medisorp 96-well ELISA flat-bottom plates were coated with PP2Ac peptides L309 (ac-[…]) (SEQ ID NO:18), meL309 (ac-[…]-CH3) (SEQ ID NO:18), PP4c peptides L307 (ac-[…]) (SEQ ID NO:20), meL307 (ac-[…]-CH₃) (SEQ ID NO:20), PP6c peptides L305 (ac-[…]) (SEQ ID NO:22) or meL305 (ac-[…]-CH₃) (SEQ ID NO:22) at 2 μg/ml in TBS or TBS only (Neg) at 4° C. over-night. After washing once with TBS, the wells were incubated with 2% BSA in TBS for 1 h at RT. After washing once with TBS, the wells were incubated with single clone hybridoma cell culture supernatant, clone 7C10-C5 1:50 for 1 h at RT. After washing twice with TBS, wells were incubated with anti-mouse and anti rabbit HRP-coupled secondary antibody for 1 h at RT, followed by washing 3× in PBS. Bound antibodies were detected by colorimetric reaction with 3,3′,5,5′-Tetramethylbenzidine as substrate, and absorbance was measured at 450 nm. Values were normalized to meL309 which was set to 1. Average and standard deviation of N=7 experiments are shown. […] Statistical significance was assessed using ANOVA followed by Tukey's HSD as a post-hoc test. […]

[2] = target: T2, PP6c C-terminal peptide meL305, …; assay: as above
Source text: as §1

[3] = target: T3, PP4c peptides L307, meL307 (Homo sapiens, UniProt P60510); assay: ELISA with PP4c C-terminal undecapeptides; format: binding
T3 construct: carboxymethylated versus non-methylated PP2Ac, PP4c and PP6c C-terminal undecapeptides
Method: To further characterize the carboxymethyl-PP2Ac specificity of monoclonal antibody 7C10-C5 ELISAs were performed on carboxymethylated versus non-methylated PP2Ac, PP4c and PP6c C-terminal undecapeptides.
Specifically, flat-bottom Nunc-Immuno Medisorp 96-well ELISA plates (Thermo; 467320) were coated o/n at 4° C. with 50 μl of either a peptide of the sequence ac-HVTRRTPDYFL-OH (L309) (SEQ ID NO:18) at a concentration of 2 μg/ml in TBS (137 mM NaCl (AppliChem, #131659, 2.7 mM KCl (AppliChem, #131494), 24.8 mM Tris (AppliChem, #A1086), pH 7.4 with HCl), a peptide of the sequence ac-HVTRRTPDYFL-CH3 (meL309) (SEQ ID NO:18) 2 μg/ml in TBS, with a peptide of the sequence (ac-PSKKPVADYFL (L307) (SEQ ID NO:20) at a concentration of 2 μg/ml in TBS or with a peptide of the sequence ac-PSKKPVADYFL-CH3 (meL307) (SEQ ID NO:20) at a concentration of 2 μg/ml in TBS, with a peptide of the sequence ac-IPPRTTTPYFL (L305) (SEQ ID NO:22) at a concentration of 2 μg/ml in TBS or with a peptide of the sequence ac-IPPRTTTPYFL-CH3 (meL305) (SEQ ID NO:22) at a concentration of 2 μg/ml in TBS. […] Bound antibodies were detected colorimetrically by addition of 50 μl of 33 μg/ml […] (TMB) (Sigma, T2885) in 0.1 M sodium acetate pH 6.0 and 0.01% H2O2 (Sigma, H1009). […] The results from 560 nm read were subtracted from the 450 nm read.

PP4 = assay: Summary of cross-reactivities of C-terminal PP2Ac antibodies (Table 4), PP4; conditions: antibodies screened for binding methylated PP2Ac
Source text: Examples of antibodies with a preference for non-methylated PP2Ac are mouse monoclonal antibody 4B7 (Yu (2001), Mol Biol Cell 12, 185-199), mouse monoclonal antibody 1D7 generated by the Ogris lab but also the rabbit monoclonal E155 antibody from Abeam and the mouse monoclonal F-8 from SCBT that were thought to be specific for pTyr^307.

Molecule	fold-change of ELISA signal, meL309 (PP2A) over meL307 (PP4) [1]	fold-change of ELISA signal, meL309 (PP2A) over meL305 (PP6) [2]	carboxymethylated versus non-carboxymethylated PP4c peptide signal [3]	PP4 meLeu^307 (PP4)
B1	10.1 fold	16.2 fold		
B2			No significant difference	— (— <15%)
